Source: IntAct's records for PubMed 17032765

B1: Segment polarity protein dishevelled homolog DVL-2 (Mus musculus), Q60838 (parent)
chain: MAGSSAGGGGVGETKVIYHLDEEETPYLVKIPVPAERITLGDFKSVLQRPAGAKYFFKSMDQDFGVVKEEISDDNARLPCFNGRVVSWLVSSDTPQPEVAPPAHESRTELVPPPPPLPPLPPERTSGIGDSRPPSFHPNVSSSHENLEPETETESVVSLRRDRPRRRDSSEHGAGGHRPGGPSRLERHLAGYESSSTLMTSELESTSLGDSDEDDTMSRFSSSTEQSSASRLLKRHRRRRKQRPPRMERTSSFSSVTDSTMSLNIITVTLNMEKYNFLGISIVGQSNERGDGGIYIGSIMKGGAVAADGRIEPGDMLLQVNDMNFENMSNDDAVRVLRDIVHKPGPIVLTVAKCWDPSPQAYFTLPRNEPIQPIDPAAWVSHSAALTGAFPAYPGSSSMSTITSGSSLPDGCEGRGLSVHMDMASVTKAMAAPESGLEVRDRMWLKITIPNAFLGSDVVDWLYHHVEGFPERREARKYASGLLKAGLIRHTVNKITFSEQCYYVFGDLSGGCESYLVNLSLNDNDGSSGASDQDTLAPLPGATPWPLLPTFSYQYPAPHPYSPQPPPYHELSSYTYGGGSASSQHSEGSRSSGSTRSDGGAGRTGRPEERAPESKSGSGSESELSSRGGSLRRGGEPGGTGDGGPPPSRGSTGAPPNLRALPGLHPYGAPSGMALPYNPMMVVMMPPPPPPVSTAVQPPGAPPVRDLGSVPPELTASRQSFHMAMGNPSEFFVDVM

Variants of: B1
Settings: with Ankrd6, Q69ZU8-1
Sequence of Ankrd6, Q69ZU8-1 (Q69ZU8 whole entry): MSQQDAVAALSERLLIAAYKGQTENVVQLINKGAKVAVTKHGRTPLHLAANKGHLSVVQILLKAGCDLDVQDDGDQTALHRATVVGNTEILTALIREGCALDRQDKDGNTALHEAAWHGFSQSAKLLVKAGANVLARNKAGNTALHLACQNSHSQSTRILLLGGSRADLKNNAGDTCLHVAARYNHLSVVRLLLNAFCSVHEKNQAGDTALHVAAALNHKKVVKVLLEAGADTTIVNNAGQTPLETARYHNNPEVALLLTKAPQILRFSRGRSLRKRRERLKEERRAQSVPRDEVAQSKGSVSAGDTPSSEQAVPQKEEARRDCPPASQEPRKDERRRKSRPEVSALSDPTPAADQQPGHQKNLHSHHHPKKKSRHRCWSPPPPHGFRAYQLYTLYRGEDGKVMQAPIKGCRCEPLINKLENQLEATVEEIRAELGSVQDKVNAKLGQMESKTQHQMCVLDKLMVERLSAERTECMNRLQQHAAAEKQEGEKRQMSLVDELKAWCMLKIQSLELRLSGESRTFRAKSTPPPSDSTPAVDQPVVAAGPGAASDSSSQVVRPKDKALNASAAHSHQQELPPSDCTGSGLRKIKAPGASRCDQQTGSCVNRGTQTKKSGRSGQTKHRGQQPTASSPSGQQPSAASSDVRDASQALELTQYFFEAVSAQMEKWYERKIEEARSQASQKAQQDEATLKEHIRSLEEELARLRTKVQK

Row | Variant | effect of a mutation on the interaction
1 | K446M | decreasing interaction strength
